First the molecules themselves.
T1: AF9 YEATS domain, His-AF9 (1-138) (human, UniProt P42568 1-138)
T1 construct: Expressed in E. coli; not shown: His tag
T1 sequence (looked up): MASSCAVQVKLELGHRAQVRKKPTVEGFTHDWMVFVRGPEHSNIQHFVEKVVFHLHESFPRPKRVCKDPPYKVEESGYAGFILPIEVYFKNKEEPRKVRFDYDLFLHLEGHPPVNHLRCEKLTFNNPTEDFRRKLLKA

B1: compound 13 (XL-13) (peptide)
peptide: KQTARK(Oxazole(5-CO))STGG-NH2
modifications: N-terminus assumed
SMILES: C[C@H](NC(=O)[C@@H](NC(=O)[C@H](CCC(N)=O)NC(=O)[C@@H](N)CCCCN)[C@@H](C)O)C(=O)N[C@@H](CCCNC(=N)N)C(=O)N[C@@H](CCCCNC(=O)c1cnco1)C(=O)N[C@@H](CO)C(=O)N[C@H](C(=O)NCC(=O)NCC(N)=O)[C@@H](C)O
notes: also called 4.13
B2: compound 7 (XL-07) (peptide)
peptide: KQTARK(2Furoyl)STGG-NH2
modifications: N-terminus assumed
SMILES: C[C@H](NC(=O)[C@@H](NC(=O)[C@H](CCC(N)=O)NC(=O)[C@@H](N)CCCCN)[C@@H](C)O)C(=O)N[C@@H](CCCNC(=N)N)C(=O)N[C@@H](CCCCNC(=O)c1ccco1)C(=O)N[C@@H](CO)C(=O)N[C@H](C(=O)NCC(=O)NCC(N)=O)[C@@H](C)O
notes: also called 4.7
B3: compound 43 (competitor R8-K) (peptide)
peptide: Cbz-QTAKK(2Furoyl)-NH2
SMILES: C[C@H](NC(=O)[C@@H](NC(=O)[C@H](CCC(N)=O)NC(=O)OCc1ccccc1)[C@@H](C)O)C(=O)N[C@@H](CCCCN)C(=O)N[C@@H](CCCCNC(=O)c1ccco1)C(N)=O
notes: Full structure only as drawing
B4: compound 45 (competitor R8-Q) (peptide)
peptide: Cbz-QTAQK(2Furoyl)-NH2
SMILES: C[C@H](NC(=O)[C@@H](NC(=O)[C@H](CCC(N)=O)NC(=O)OCc1ccccc1)[C@@H](C)O)C(=O)N[C@@H](CCC(N)=O)C(=O)N[C@@H](CCCCNC(=O)c1ccco1)C(N)=O
notes: as for B3
B5: compound 16 (XL-16) (peptide)
peptide: KQTARKSTGG-NH2
modifications: not fully specified (residue 6); also: Lys6 acylated with group R, structure drawing only
notes: also called 4.16
B6: compound 10 (XL-10) (peptide)
peptide: KQTARKSTGG-NH2
modifications: not fully specified (residue 6); also: Lys6 acylated with group R, structure drawing only
notes: also called 4.10
B7: compound 12 (XL-12) (peptide)
peptide: KQTARKSTGG-NH2
modifications: not fully specified (residue 6); also: Lys6 acylated with group R, structure drawing only
notes: also called 4.12
B8: compound 11 (XL-11) (peptide)
peptide: KQTARKSTGG-NH2
modifications: not fully specified (residue 6); also: Lys6 acylated with group R, structure drawing only
notes: also called 4.11
B9: compound 15 (XL-15) (peptide)
peptide: KQTARKSTGG-NH2
modifications: not fully specified (residue 6); also: Lys6 acylated with group R, structure drawing only
notes: also called 4.15
B10: compound 25 (XL-07i) (peptide)
peptide: H-KQTARK(2Furoyl)-NH2
SMILES: C[C@H](NC(=O)[C@@H](NC(=O)[C@H](CCC(N)=O)NC(=O)[C@@H](N)CCCCN)[C@@H](C)O)C(=O)N[C@@H](CCCNC(=N)N)C(=O)N[C@@H](CCCCNC(=O)c1ccco1)C(N)=O
notes: also called 4.7i
B11: compound 2 (XL-02) (peptide)
peptide: KQTARKSTGG-NH2
modifications: not fully specified (residue 6); also: Lys6 acylated with group R, structure drawing only
notes: also called 4.2
B12: compound 3 (XL-03) (peptide)
peptide: KQTARKSTGG-NH2
modifications: not fully specified (residue 6); also: Lys6 acylated with group R, structure drawing only
notes: also called 4.3
B13: compound 4 (XL-04) (peptide)
peptide: KQTARKSTGG-NH2
modifications: not fully specified (residue 6); also: Lys6 acylated with group R, structure drawing only
notes: also called 4.4
B14: compound 24 (XL-07h) (peptide)
peptide: H-QTARK(2Furoyl)-NH2
SMILES: C[C@H](NC(=O)[C@@H](NC(=O)[C@@H](N)CCC(N)=O)[C@@H](C)O)C(=O)N[C@@H](CCCNC(=N)N)C(=O)N[C@@H](CCCCNC(=O)c1ccco1)C(N)=O
notes: also called 4.7h
B15: compound 49 (competitor A7-W) (peptide)
peptide: Cbz-QTWRK(2Furoyl)-NH2
SMILES: C[C@@H](O)[C@H](NC(=O)[C@H](CCC(N)=O)NC(=O)OCc1ccccc1)C(=O)N[C@@H](Cc1c[nH]c2ccccc12)C(=O)N[C@@H](CCCNC(=N)N)C(=O)N[C@@H](CCCCNC(=O)c1ccco1)C(N)=O
notes: as for B3
B16: compound 47 (competitor A7-L) (peptide)
peptide: Cbz-QTLRK(2Furoyl)-NH2
SMILES: CC(C)C[C@H](NC(=O)[C@@H](NC(=O)[C@H](CCC(N)=O)NC(=O)OCc1ccccc1)[C@@H](C)O)C(=O)N[C@@H](CCCNC(=N)N)C(=O)N[C@@H](CCCCNC(=O)c1ccco1)C(N)=O
notes: as for B3
B17: compound 53 (competitor T6-A) (peptide)
peptide: Cbz-QAARK(2Furoyl)-NH2
SMILES: C[C@H](NC(=O)[C@H](C)NC(=O)[C@H](CCC(N)=O)NC(=O)OCc1ccccc1)C(=O)N[C@@H](CCCNC(=N)N)C(=O)N[C@@H](CCCCNC(=O)c1ccco1)C(N)=O
notes: as for B3
B18: compound 55 (competitor T6-S) (peptide)
peptide: Cbz-QSARK(2Furoyl)-NH2
SMILES: C[C@H](NC(=O)[C@H](CO)NC(=O)[C@H](CCC(N)=O)NC(=O)OCc1ccccc1)C(=O)N[C@@H](CCCNC(=N)N)C(=O)N[C@@H](CCCCNC(=O)c1ccco1)C(N)=O
notes: as for B3
B19: peptide control (competitor control) (peptide)
peptide: Cbz-QTARK(2Furoyl)-NH2
SMILES: C[C@H](NC(=O)[C@@H](NC(=O)[C@H](CCC(N)=O)NC(=O)OCc1ccccc1)[C@@H](C)O)C(=O)N[C@@H](CCCNC(=N)N)C(=O)N[C@@H](CCCCNC(=O)c1ccco1)C(N)=O

From US20210277061A1 (UNIVERSITY OF HONG KONG, published 2021) come the findings set out here.

No end group written: not given here. *: point of attachment. Oxazole(5-CO) = O=C(c1cnco1)*; 2Furoyl = O=C(c1ccco1)*; Cbz = O=C(OCc1ccccc1)*

A word on the IC50: it is the concentration that inhibits the measured activity by half. A higher IC50 goes with lower potency. One may read the Kd as the free concentration of one partner at which half of the binding sites on the other are occupied at equilibrium, for simple one-to-one binding. A high value points to a looser complex.

The target of the first assay is T1, AF9 YEATS domain, His-AF9 (1-138). The assay is described as follows: ITC.
With B1, the “fold binding enhancement over the native crotonyl group (H3K9cr)” value was 14.8 fold.

For B2, the “fold binding enhancement over the native crotonyl group (H3K9cr)” value came to 4.5 fold.

The target is the same in the next assay. Put plainly: photo-cross-linking competition screen at 0.3 µM, in-gel fluorescence.
B3: the binding result is “binds”.

Consider B4, for which the binding result is listed as “binds”.

For a further assay the target is unchanged. The assay is described as follows: photo-cross-linking competition vs photoaffinity probe, in-gel fluorescence.
KQTARK(Arg)STGG-NH2 (also: Lys6 acylated with group R, shown only as a drawing, also called 4.9) [compound 9 (XL-09)]: the IC50 was 6500 nM.

With B5, the 50% inhibitory concentration (IC50) was determined as 12600 nM.

In turn, B6 showed an IC50 of 10600 nM.

In the case of B7, the 50% inhibitory concentration (IC50) came to 10400 nM. This IC50 and that of the molecule before are within 1.5-fold of each other.

In turn, KQTARK(4‑oxazolecarbonyl)STGG-NH2 (also called 4.14) [compound 14 (XL-14)] came in with an IC50 of 3000 nM.

Take B8: the IC50 is 15700 nM.

As to B9, the IC50 came out at 24500 nM.

Take QTARK(2Furoyl)-NH2 (not fully specified (N-terminus), Full structure only as drawing) [compound 74 (competitor Cbz-4)]: the IC50 was found to be 230 nM.

In the case of B10, the IC50 was 460 nM.

B1 displayed an IC50 of 740 nM.

Turning to KQTARK(3‑furancarbonyl)STGG-NH2 (also called 4.8) [compound 8 (XL-08)], the IC50 came to 1700 nM.

B11: the IC50 was 29800 nM.

Molecule B2 displayed an IC50 of 1300 nM.

In turn, B12 had an IC50 of 22100 nM. Compared with the last molecule, the IC50 is about 17-fold higher.

Take KQTARK(2‑pyrimidinecarbonyl)STGG-NH2 (also called 4.6) [compound 6 (XL-06)]: the half-inhibitory concentration (IC50) is 3700 nM.

Molecule KQTARK(isonicotinoyl)STGG-NH2 (also called 4.5) [compound 5 (XL-05)] yielded an IC50 of 2100 nM.

On to B13, for which the IC50 was found to be 22200 nM.

With B14, the IC50 worked out at 4500 nM.

Regarding B15, the IC50 worked out at 320 nM.

Take B16: the concentration for half-maximal inhibition (IC50) came out at 340 nM.

The molecule B17 gave an IC50 of 720 nM.

For B18, the IC50 came to 780 nM. The IC50 values of the last two molecules are within 1.5-fold of each other.

KQTARK(cyclopentanecarbonyl)STGG-NH2 (also called 4.17) [compound 86 (negative control), XL-17] returned a half-maximal inhibitory concentration (IC50) of 34500 nM.

A further assay shares this target. The assay is described as follows: ITC. This is another data set of the same source.
B1: the equilibrium dissociation constant (Kd) was found to be 1000 nM, the “N (sites)” value stood at 1.04 sites, the ΔH was -12.3 kcal/mol and the ΔS was -13.8 cal/mol/deg.

On to B2, for which binding was characterised by a dissociation constant (Kd) of 3300 nM, the “N (sites)” value is 0.91 sites, the ΔH is -12.2 kcal/mol and the ΔS is -15.9 cal/mol/deg.

Another assay has the same target. The assay is described as follows: photo-cross-linking competition vs photoaffinity probe, in-gel fluorescence. This is another data set of the same source.
QTARK(2Furoyl)-NH2 (not fully specified (N-terminus), Full structure only as drawing) [compound 74 (competitor Cbz-4)] yielded a 50% inhibitory concentration (IC50) of 226 nM.

The molecule B19 returned a 50% inhibitory concentration (IC50) of 189 nM. This IC50 and that of the molecule before are within 1.5-fold of each other.

For the molecule B15, the half-maximal inhibitory concentration (IC50) came out at 315 nM. This IC50 is about 1.7-fold higher than that of the molecule before.

Molecule B16 returned an IC50 of 338 nM.

B17 had an IC50 of 715 nM.

On to B18, for which the half-maximal inhibitory concentration (IC50) stood at 778 nM.
